# From the nanobody polyreactivity screen of Harvey et al. (2022)
# Experiment: yeast display, Sf9 membrane polyspecificity reagent, FACS + sequencing; frameworks hold sequencing errors
# Method in brief: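 Galactose-induced (36–48 hours) yeast carrying a synthetic nanobody display library were exposed to 10% biotinylated, detergent-solubilized Sf9 membrane reagent at 4 °C for 1 hour. FACS followed streptavidin microbead enrichment, using low and high (top ~1%) gates for expression (anti-HA) and reagent binding (streptavidin). Colony PCR, MiSeq 2 × 250 sequencing and CDR-length filtering followed. Labels for polyreactivity reflect the gate of origin.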
row,Sequence,polyreactivity (PSR sort gate)
1,QVQLVESGGGLVQAGGSLRLTCAASGSIFSTNAMGWYRQAPGKERELVATITSGGRTYYADSVKGRFTISRDNAKNTVYLQMNSLKPEDTAVYYCARVPPKYRWGRRLVYVHVDYWGQGTQVTVSS,low polyreactivity
2,QVQLVESGGGLVQAGGSLRLTCAASGSIFTGNTMGWYRQATGKERELVAAITGSGGRTYYADSVKGRFTISRDNAKNTVYLQMNSLKPEDTAVYYCAADRSYYPDTRTTYGYNYWGQGTQVTVSS,low polyreactivity
3,QVQLVESGGGLVQAGGSLRLTCAASGSIFYVNAMGWYRQAPGKERESVAGITGSGSRTYYADSVKGRFTISRDNAKNTVYLQMNSLKPEDTAVYYCARLTRTSRGLYDYWGQGTQVTVSS,high polyreactivity
4,QVQLVESGGGLVQAGGSLRLTCAASGSIIYTNGMGWYRQAPAKERELVAAISVSGGSTYYADSVKGRFTITRDNEKNTVYLQMNSLKPEDTAVYFCNAKDWYFYRYDYWGQGTQVTVSS,low polyreactivity
5,QVQLVESGGGLVQAGGSLRLTCAASGSTDPYAMGWYRQAPGKERELVARIRYSGGSTYYADSVKGRCTISRDNAKNTVYFQMTSLKPEDTAVYYCAAQSYTYYHHYGYWGQGTQVTVSS,high polyreactivity
6,QVQLVESGGGLVQAGGSLRLTCAASGSTFAYYAMRWYRQAPGTERELVAVINGITGSTYYADSVKGRFTISRDHAKNTVYLQMNSLKPEDTAVYYCNADYAVVTDEGDYWGQGTQVTVSS,low polyreactivity
7,QVQLVESGGGLVQAGGSLRLTCAASGSTFGDNAMGWYRQAPGKEREFVATISWDTGTTYYADSVKGRFTISRDNAKNTVYLHMNSLKQEDTAVYYCNVQSYAEFGYWGQGTQVTVSS,low polyreactivity
8,QVQLVESGGGLVQAGGSLRLTCAASGSTFGLNAMGWYRQAPAKERELVAAITSRGTRTYYADSVKGRFTISRDNAKNTVYLQMNSLKPEDTAVYYCGKDSGATRYGEYDYWGQGTQVTVSS,low polyreactivity
9,QVQLVESGGGLVQAGGSLRLTCAASGSTFISYAMGWYRPAPGKERELVAAISRRGDSTYYADSVKGRFTISRDNAKYTVYLQMKSLKPEDTAVYYCAADSYPAYLGFVGFDYWRQGTQVTVSS,low polyreactivity
10,QVQLVESGGGLVQAGGSLRLTCAASGSTFRLNAIGWYRQAPGKERELVAAISRSTGTTHYADSVKGRFTISRDNAKHTVYLQMNSLIPEDTAVYYCAAQGGDGVLALYYYWGQGTQVTVSS,low polyreactivity
11,QVQLVESGGGLVQAGGSLRLTCAASGSTFRLYAMGWYRQAPGKERELVAGISRTGTSTYYADSVKGRFTISRDNAKTTVFLQMNSLKPEDTAVYYCAASIGGGSYWGQGTQLTVSS,high polyreactivity
12,QVQLVESGGGLVQAGGSLRLTCAASGSTFRWYAMGWYRPAPGKERELVAVITSGASTNYADSVKGRFTISRDNAKNTVYLQMNSLKPEDTAVYYCNRVPYFRWKYGYWGQGTQVTVSS,high polyreactivity
13,QVQLVESGGGLVQAGGSLRLTCAASGSTFSSYGMGWYRQAPGKERELVASITIRGGSTYYADSVKGRFTISRDNAKNTVYLQMNSLKPEDTAVYYCAADVTNRGTWVIYGYYYWGQGTQVTVSS,low polyreactivity
14,QVQLVESGGGLVQAGGSLRLTCAASGSTFTAYAMGWYRQAPGKDLELVDAINWSGGTTYYADSVKGRFTISRDNAKNTVYLQMNSLKPEDTAVYYCPVDGNFFGEVRPYDYWGQGTQVTLSS,low polyreactivity
15,QVQLVESGGGLVQAGGSLRLTCAASGSTFTYNGMGWYRQAPGKERELVAAITKRGGSTYYADSVKGRFTISRDNAKNTVYLQMNSLKPEETAVYYCAKPAASGFRWDSGYWGQGTQVTLSS,high polyreactivity
16,QVQLVESGGGLVQAGGSLRLTCAASGSTFTYYAMGWYRQAPGKERDLVAAITSSDGSTYYADSVKGRFTISRDNAKNTVYLQMNSLKPEDTAVYYCAADNYVDFYDEYDYWGQGTQVTVSS,low polyreactivity
17,QVQLVESGGGLVQAGGSLRLTCAASGSTFWDNTMGWYRQAPGKDRELVAGITGGGNTKYADSVKGRFTISRDNAKNTVYLQMNSLKPEDTAVYYCAAERLRGYRGVRGYYGYYYWGQGTQVTVSS,high polyreactivity
18,QVQLVESGGGLVQAGGSLRLTCAASGSTFWSYGMGWYRPAPGKERELVAAITRGGSTYYADSVKGRFTISRDNAKNTVYLQMNSLIPEDTAVYYCAAGISVRWSPSYYYWGQGTQVTVSS,high polyreactivity
19,QVQLVESGGGLVQAGGSLRLTCAASGSTIGGNPMVCYRHAPGKERELVAAITFSGGSTSYADSVKGRFTISRDNAKNTVYLQMNSLKPEDTAVYYCAASWVYPYDYWRQGTQVTVSS,low polyreactivity
20,QVQLVESGGGLVQAGGSLRLTCAASGSTLNYYAMGWYRQAPGKERELVAAIRSGGNTNYADSVKGRFTISRDNAKNTVYLQMNSLKPEDTAVYYCAKDESYFYDRVPLDYWGQGTQVTVSS,low polyreactivity

row,Sequence,polyreactivity (PSR sort gate)
1,QVQLVESGGGLVQAGGSLRLTCAASGSTLSTYVMGWYRQAPGKERELVAAITRRGGITYYADSVKGRFTISRDNAKNTVYLQMNSLKPEDTAVYYCAATGVRSKRLASQWKLYYWGQGTQVTVSS,high polyreactivity
2,QVQLVESGGGLVQAGGSLRLTCAASGSTLYWKAMGWYRQAPGKERELVASITSSGGSTYYADSVKGRFTISRDNAKNTVYLQMNSLKPEDTAVYDCATESWWRYSEYYYWGQGSQVTVSS,low polyreactivity
3,QVQLVESGGGLVQAGGSLRLTCAASGSTSYPYAMGWYRQEPGKERELVATITSGGRTNYADSVKGRFTISRDNAKNTVYLQMHSLKPEDTAVYYCNARFYRWRSYGYDYWGQGTQVTVSS,high polyreactivity
4,QVQLVESGGGLVQAGGSLRLTCAASGYIFNRNAMGWYRQAPGKERELVAAISGSGAVTYYADSVKGRFTISRDNAKNTVYFQMNSLKPEDTAVYYCAKKLYWREGRYDYWGQGTQVTVSS,high polyreactivity
5,QVQLVESGGGLVQAGGSLRLTCAASGYTFGHYAMGWYRQAPGKERELVAVITSGGSTNYADSVKGRFTISRDNAKNTVYLQMNSLKPEDTAVYYCAADLYFYYVWIRDYWGQGTQVTVSS,low polyreactivity
6,QVQLVESGGGLVQAGGSLRLTCAASGYTFGKYAMGWYREAPGKERELVATIRSGGSTNYADSLKGRFTISRDNAKNTVYLQMNSLKPEDTAVYYCNKRYRYEYGYDYWGQGTLVTVSS,high polyreactivity
7,QVQLVESGGGLVQAGGSLRLTCAASGYTFVIYSMVWYRQAPGKVRELVAAITTIGGRTYYADSVKGRFTISRDNAKNTVYLQMNSLKPEDTAVYYCAADIRSNRLYDGGYWRQGTQVTVSS,low polyreactivity
8,QVQLVESGGGLVQAGGSLRLTCAASGYTFYSYAMGWYRQAPGKERELVAAIRTGGGTNYADSVKGRFTISRDNAMNTVYLQMNSLKPEDTAVYYCAADSFDPAGHVDYWGQGTQVTVSS,low polyreactivity
9,QVQLVESGGGLVQAGGSLRLTCAASRRIFSYYAMGDYIQATGKERELVADINWSGGSTYYADSVKGRFTISRDNAKNTFYLQMNSLKPEDTAVYYCAVDWTSAYGTYYYTPYDSWGQGTQVTVSS,low polyreactivity
10,QVQLVESGGGLVQAGGSLRLTCADSGNILLFNAMGWYRQAPGKERELVATINQSGGRTYYADSVKGRFTISRDNAKNTVYLQMNSLKPEDTAVYYCNAERHPYYYWHTQRLDYWGQGTQVTVSS,low polyreactivity
11,QVQLVESGGGLVQAGGSLRLTCADSGSIFYYYGMGWYRQAPGKERELVASITQSGVSTYYADSVKGRFTISRDNANNSVYLQMNSLKPEYTAVYYCAAGTVSGVDYWGQGTQVTVSS,high polyreactivity
12,QVQLVESGGGLVQAGGSLRLTCAPSGRIFTRNTMGSYRQAPGKERELVAAISTGASTYYADSVKGRFTISRDNATNSVYLQMNSLKPEVTAVYYCATRGYARYWGLGTQVTVSS,low polyreactivity
13,QVQLVESGGGLVQAGGSLRLTCASSGRIYVVNAMGWYRQAPGKEMELVADIYRSGGSTYYADSVKGRFTISRDYAKNTVYLQMNSLKPEDTAVYYCAAEDWPSSPSAPGFDYDYWGQATQVTVSS,low polyreactivity
14,QVQLVESGGGLVQAGGSLRLTCDASGITFRLYAMGWSRQAPGKETELVARITDRGSTYYADSVKGRFTISRDNAKNTVYLQMNSLKPEDTAVYYCAARGYRGLVQLRYGYWGQGTQVTVSS,high polyreactivity
15,QVQLVESGGGLVQAGGSLRLTCDASGITYYGYAIGWSRQAPGKEREWVAGINNGGSTTYADSVKGRFTISRDNAKITVYLQMNSVKPEDTAVYYCAADPVYLNKLLYYVGQAYYYWGQGTQVTVSS,high polyreactivity
16,QVQLVESGGGLVQAGGSLRLTCDASGSTFYIYAMGWYRQAPGKERELVARISGSCGSTYYADSVKGRFTISRDNAKNTVYLQMNSLKPEETAVYDCASDDIYKNYQYYAFPYYRYDYWGQGTQVTVSS,low polyreactivity
17,QVQLVESGGGLVQAGGSLRLTCSASGIILYYYAMGWNRQAPGKERELVAAISSSGGSTYYADSVKGRFTFSRDNAKNTVYLQMKSLKPEDTAVYYCAAWVVPLRYAYGRLTYNYWGQGTQVTVSS,high polyreactivity
18,QVQLVESGGGLVQAGGSLRLTSADSGRTLYNYAMRWYRQAPGKERELVAGISSAGSTNYADSVKGRFTISRDNAKNTVYLQMNSLKPEDTAVYYCNAVLRRRWVTFYYWGQGPQVTVSS,high polyreactivity
19,QVQLVESGGGLVQAGGSLRLTSAGSGSTFSYYTMGWYRQAPGKERELVATIRSTGSTTYADSVKGRFTISRDNVKNTVYLQMNSLKPEDTAVYFCAARSRWGGYIHTGYDYWGQGTQVTVSS,low polyreactivity
20,QVQLVESGGGLVQAGGSLRLTWAATGSIFRTNAMGSYRPAPGKERELVAAITGSGGSTYYADSVKGRFTISRYNAKNTVYLQMNCLKPEETAVYYCAAEFGSFVSPYNYYYWGQGTQVTVSS,low polyreactivity
